Literature values, collected in PMC9458874.

Molecular target: HAB1 (Arabidopsis thaliana) (UniProt Q9CAJ0)
UniProt Q9CAJ0, sequence (Q9CAJ0 23-511): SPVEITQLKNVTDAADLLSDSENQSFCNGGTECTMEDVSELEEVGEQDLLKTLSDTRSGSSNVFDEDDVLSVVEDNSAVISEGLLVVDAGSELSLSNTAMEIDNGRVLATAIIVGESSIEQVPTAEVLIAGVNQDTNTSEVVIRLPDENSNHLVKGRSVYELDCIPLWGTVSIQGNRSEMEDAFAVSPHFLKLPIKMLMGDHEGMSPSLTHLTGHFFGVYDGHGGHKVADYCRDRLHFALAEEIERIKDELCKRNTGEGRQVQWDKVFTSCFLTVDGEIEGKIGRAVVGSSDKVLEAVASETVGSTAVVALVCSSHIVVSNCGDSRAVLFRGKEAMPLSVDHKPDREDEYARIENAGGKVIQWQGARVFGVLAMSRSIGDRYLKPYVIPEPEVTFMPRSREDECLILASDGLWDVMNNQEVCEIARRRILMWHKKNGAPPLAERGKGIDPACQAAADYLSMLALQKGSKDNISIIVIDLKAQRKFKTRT

Kd: 30 nM
Substance: PYR1 (from UniProt O49686)
